Laboratory results taken from US20200255836.
pKd: −log10 of the molar value.

Biological target: Cas9 (His-Cas9) (Streptococcus pyogenes) (UniProt Q99ZW2)
Test: SPR
Conditions: Cas9 without guide; 20 mM Tris pH 8.0, 150 mM NaCl, 1 mM MgCl2

Chain of Cas9 (His-Cas9) (Streptococcus pyogenes) (Q99ZW2 whole entry): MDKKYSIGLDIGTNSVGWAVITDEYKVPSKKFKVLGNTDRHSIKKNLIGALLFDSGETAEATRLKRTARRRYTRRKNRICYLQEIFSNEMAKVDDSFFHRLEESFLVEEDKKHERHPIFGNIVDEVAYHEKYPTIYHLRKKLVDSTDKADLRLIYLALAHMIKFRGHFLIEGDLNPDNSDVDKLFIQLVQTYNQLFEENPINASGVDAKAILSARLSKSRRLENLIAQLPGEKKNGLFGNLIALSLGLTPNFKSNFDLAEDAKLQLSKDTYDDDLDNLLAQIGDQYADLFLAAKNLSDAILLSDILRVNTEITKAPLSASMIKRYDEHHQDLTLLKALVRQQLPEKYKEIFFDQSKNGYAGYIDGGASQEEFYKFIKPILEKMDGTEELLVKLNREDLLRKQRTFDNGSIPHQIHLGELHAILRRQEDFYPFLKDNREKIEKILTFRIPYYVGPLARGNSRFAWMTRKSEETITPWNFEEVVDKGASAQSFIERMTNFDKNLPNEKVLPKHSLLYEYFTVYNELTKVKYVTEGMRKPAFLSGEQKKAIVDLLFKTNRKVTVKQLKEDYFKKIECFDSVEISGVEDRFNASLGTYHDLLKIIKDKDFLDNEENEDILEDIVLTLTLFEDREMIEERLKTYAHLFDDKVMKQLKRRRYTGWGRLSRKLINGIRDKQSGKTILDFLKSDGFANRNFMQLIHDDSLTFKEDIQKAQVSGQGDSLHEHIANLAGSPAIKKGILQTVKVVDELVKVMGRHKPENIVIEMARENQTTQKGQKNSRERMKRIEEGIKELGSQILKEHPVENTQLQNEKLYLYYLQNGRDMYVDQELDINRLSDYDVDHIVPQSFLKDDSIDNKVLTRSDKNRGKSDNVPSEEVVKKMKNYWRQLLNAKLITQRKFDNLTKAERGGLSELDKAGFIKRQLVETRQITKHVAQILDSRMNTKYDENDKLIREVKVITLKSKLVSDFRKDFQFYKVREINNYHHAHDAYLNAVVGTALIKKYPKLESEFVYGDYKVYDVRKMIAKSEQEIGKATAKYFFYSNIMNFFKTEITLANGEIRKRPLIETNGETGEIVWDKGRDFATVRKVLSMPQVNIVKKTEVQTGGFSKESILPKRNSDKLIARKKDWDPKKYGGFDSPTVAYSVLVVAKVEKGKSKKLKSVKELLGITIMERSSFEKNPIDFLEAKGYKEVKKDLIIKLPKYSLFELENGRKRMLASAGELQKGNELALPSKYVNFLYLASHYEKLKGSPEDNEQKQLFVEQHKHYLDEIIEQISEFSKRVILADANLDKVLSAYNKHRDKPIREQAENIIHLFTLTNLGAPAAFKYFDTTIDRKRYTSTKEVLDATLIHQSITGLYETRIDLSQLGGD

“GAGGCTCTCACATCGGTAACGGTGTGAGAGCCTC [Tetra]” showed a pKd of 5.06.
